Measurements taken from patent publication US20160319041.

B1: clostripain (protein)
chain: NKNQKVTIMYYCDADNNLEGSLLNDIEEMKTGYKDSPNLNLIALVDRSPRYSSDEKVLGEDFSDTRLYKIEHNKANRLDGKNEFPEISTTSKYEANMGDPEVLKKFIDYCKSNYEADKYVLIMANHGGGAREKSNPRLNRAICWDDSNLDKNGEADCLYMGEISDHLTEKQSVDLLAFDACLMGTAEVAYQYRPGNGGFSADTLVASSPVVWGPGFKYDKIFDRIKAGGGTNNEDDLTLGGKEQNFDPATITNEQLGALFVEEQRDSTHANGRYDQHLSFYDLKKAESVKRAIDNLAVNLSNENKKSEIEKLRGSGIHTDLMHYFDEYSEGEWVEYPYFDVYDLCEKINKSENFSSKTKDLASNAMNKLNEMIVYSFGDPSNNFKEGKNGLSIFLPNGDKKYSTYYTSTKIPHWTMQSWYNSIDTVKYGLNPYGKLSWCKDGQDPEINKVGNWFELLDSWFDKTNDVTGGVNHYQW

Assays:
[1] = test system: T1, rNFH-SA (engineered protein with residues 426-1066 of the rat NF-H sidearm domain, N-terminal tetra-Cys tag, C-terminal poly-His-Asn tag)
T1 sequence: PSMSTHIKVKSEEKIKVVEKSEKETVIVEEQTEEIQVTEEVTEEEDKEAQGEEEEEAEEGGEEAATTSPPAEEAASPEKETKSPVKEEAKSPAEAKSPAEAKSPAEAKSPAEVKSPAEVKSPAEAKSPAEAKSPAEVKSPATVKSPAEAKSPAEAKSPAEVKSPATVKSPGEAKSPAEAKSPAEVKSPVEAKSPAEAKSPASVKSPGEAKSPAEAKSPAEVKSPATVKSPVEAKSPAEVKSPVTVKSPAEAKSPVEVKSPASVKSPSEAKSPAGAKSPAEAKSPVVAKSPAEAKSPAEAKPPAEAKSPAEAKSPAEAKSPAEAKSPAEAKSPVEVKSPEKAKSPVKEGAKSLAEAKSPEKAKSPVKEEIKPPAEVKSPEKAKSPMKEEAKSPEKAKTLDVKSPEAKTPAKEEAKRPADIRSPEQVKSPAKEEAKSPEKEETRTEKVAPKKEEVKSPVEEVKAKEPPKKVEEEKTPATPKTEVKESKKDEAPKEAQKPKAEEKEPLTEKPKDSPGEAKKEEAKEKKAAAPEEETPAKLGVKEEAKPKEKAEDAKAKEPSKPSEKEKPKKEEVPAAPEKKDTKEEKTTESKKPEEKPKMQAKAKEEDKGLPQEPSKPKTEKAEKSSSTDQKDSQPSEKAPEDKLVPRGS

[2] = target: T2, rNFH-SA (engineered protein with residues 426-1066 of the rat NF-H sidearm domain, N-terminal tetra-Cys tag, C-terminal poly-His-Asn tag)
T2 chain: T1 sequence

Molecule | loss of HN-tag immunofluorescence; brush height by AFM [1] | loss of HN-tag immunofluorescence [2] | reduction of brush height by AFM [2]
thrombin | addition of thrombin produced a loss of fluorescence (indicating successful enzymatic cleavage) without producing a significant change in brush height by AFM | – | –
B1 | – | addition of clostripain produced the same loss of fluorescence | reducing brush height by 20%
